This is an account of results in PMC6379670, “An ultra-high affinity ligand of HIV-1 TAR reveals the RNA structure recognized by P-TEFb” (Nucleic Acids Research, 2018).

Data set [1] has as its system HIV-1 clone NLgNef in M7-luc cells. The experiment in a line: Spreading infection (inhibition of viral spread). It counts as cell-based. As to conditions: M7-luc cells infected with NLgNef. As for the experimental part:
A 5 × 10^6 5.25.EGFP.Luc.M7 cells (M7-luc, gift of N. Landau(36)) grown in Roswell Park Memorial Institute medium (RPMI) containing 25 mM 4-(2-hydroxyethyl)-1-piperazineethanesulfonic acid (HEPES) (GE Life Sciences, Pittsburgh, PA), 10% Fetal Bovine Serum (FBS) (Sigma, St. Louis, MO) and 100 μg/ml normocin (Invivogen, San Diego, CA) were infected with the HIV-1 strain NL43-GFP-IRES-Nef (NLgNef) that expresses Green Fluorescent Protein (GFP) and Nef on a bicistronic Nef messenger RNA (a gift of David Levy ([37])) at a low multiplicity of infection (<0.01 infectious units/cell). […] Forty-eight hours post peptide addition, the percentage of cells expressing GFP was determined by flow cytometry via BD Fortessa SORP (BD, Franklin Lakes, NJ). Flow cytometry data were analyzed using WinList 3D (Verity Software House, Topsham, ME). […]
To evaluate anti-viral potency, we tested compound JB181 for inhibition of viral spread (Figure 3A) by comparison with L22 and a linear peptide control (same sequence as L22 but not cyclized). […] Peptides were added 24 h post-infection and spread of infection determined after 72 h. […]
Figure 3. […] Three days post-infection, GFP expression was measured by flow cytometry. […] Twenty-four hours later, reactivation as monitored by GFP expression was measured by flow cytometry. […]

For data set [2], the system named is Jurkat clone E4 (latent HIV provirus with LTR-driven GFP). Kind of data set: Reactivation from latency. It is filed as cell-based, HIV-1. The note with it: E4 Jurkat cells, peptides 0.39-100 μM, TNFα 1 ng/ml, GFP by flow cytometry 24 h later, triplicate. The procedure: A 5 × 10^4 cells/well of Jurkat clone E4 (in RPMI ([38])) were added to a 96-well plate at the same time as a dilution series of JB181, cyclic L22 and linear L22 (0.39, 1.56, 6.25, 25, 50 and 100 μM) in triplicate. Four hours following peptide addition, tumor necrosis factor α (TNFα) (1 ng/ml, Peprotech, Rocky Hill, NJ) was added to stimulate HIV-1 transcription. Twenty-four hours later, the percentage of cells expressing GFP was determined by flow cytometry as described above.
Figure 3. (A) M7-luc cells were infected with the replication competent HIV-1 clone NLgNef at very low titer. Three days post-infection, GFP expression was measured by flow cytometry. […] (B) JB181 inhibits HIV-1 reactivation from latency. Tat-dependent expression of GFP is repressed in E4 Jurkat cells, which serve as a model of HIV latency. These cells were pre-incubated for 2 h with L22 (cyclic, green), L22 (linear, blue) or JB181 (cyclic, red) at concentrations 0.5–100 μM, then stimulated for reactivation by TNFα at 1ng/ml. Twenty-four hours later, reactivation as monitored by GFP expression was measured by flow cytometry. […] (C) Biochemical RT inhibition assays were conducted as described previously ([31]) for peptides JB59, JB60, JB181 and L50 along with AZT. (D) Competition EMSA comparing affinity of the P-TEFb/Tat1:57/AFF4 complex for wild-type HIV-TAR with or without JB181 pre-bound to TAR. […]
For orientation: Flow cytometry measures light scatter and fluorescence of single cells or particles in a stream.

A further data set concerns 2D10 Jurkat cells. It counts as cell-based. As to conditions: 1 mg/ml peptide in the extracellular medium, percent of cells containing peptide by flow cytometry. As for the experimental part: (§1) Frozen, de-identified human PBMCs (Allcells, Alameda, CA) were thawed and stimulated with 6 IU IL-2 (R&D Systems, Minneapolis, MN) and 10 μg/ml concanavalin A (ConA, MilliporeSigma, Billerica, MA) in RPMI. Six days post-thaw, CD4+ T cells were positively isolated using an EasySep Human CD4 positive selection kit in a RoboSep robot (#18052RF, Stemcell Technologies, Cambridge, MA). 2D10 Jurkat cells ([38]) were also grown in RPMI. L22 selectively labeled with 5/6-carboxyfluorescein was added at indicated concentrations at indicated time points prior to flow cytometry analysis as described above.
(§2) Fig. S4. Uptake of fluorescein-labeled L22. a). The turn residue, Lys6, of L22 was first selectively labeled with 5/6-carboxyfluorescein using NHS coupling chemistry and incubated with either CD4+ T cells (top) […]
(§3) containing peptide was analyzed by flow cytometry. b). 2D10 Jurkat cells were first stimulated with TNFα for 4hrs then incubated with L22-AF647 (red) for 30min prior to FISH staining for HIV TAR RNA (yellow), nuclear staining with DAPI (blue) and GFP expression dependent on transcription of HIV (green).
(§4) Panel I overlay all four stains, Panel II is L22-AF647 only; Panel III is L22-AF647 and TAR FISH, Panel IV L22-AF647 and GFP expression.
(§5) (1 picture or pasted object on this page, not shown here)

The test system of a further data set is CD4+ T cells. It is filed as cell-based. The note with it: human CD4+ T-cells; 1 mg/ml peptide in the extracellular medium; percent of cells containing peptide by flow cytometry. As for the experimental part:
as §1, §2, §3, §4, §5

For data set [3], the system named is JB181 (synthetic). The experiment in a line: EMSA. For orientation: In EMSA bound probe runs differently from free probe, usually more slowly.
The next data set deals with JB184 (synthetic). The experiment in a line: EMSA.
For a further data set, the system named is JB185 (synthetic). Kind of data set: EMSA.
In a further data set the test system is JB186 (synthetic). The experiment in a line: EMSA.
The test system of another data set is JB190 (synthetic). The experiment in a line: EMSA.
The test system of the next data set is JB58 (synthetic). Kind of data set: EMSA.
The next data set concerns JB59 (synthetic). Kind of data set: EMSA.
The test system of a further data set is L22 (synthetic). Kind of data set: EMSA.
Data set [4] has as its target P-TEFb/Tat1:57/AFF4;JB181 (HIV-1 (Tat); human? (P-TEFb, AFF4);synthetic) (UniProt O60563+P50750+P04608+Q9UHB7). Kind of data set: EMSA.
The test system of data set [5] is JB181 (synthetic). Kind of data set: 2-aminopurine fluorescence. The note with it: C24 replaced by 2-aminopurine.
Another data set concerns the target P-TEFb/Tat1:57/AFF4 (HIV-1 (Tat); (P-TEFb, AFF4), UniProt O60563;P50750;P04608;Q9UHB7 1-264;1-330;1-57;2-73). Kind of data set: EMSA; 250-fold excess yeast tRNA; RNA 100 pM. As to conditions: protein: recombinant; copies: 1;1;1;1; label: 5'-32P; hairpin with UCU bulge.

Non-standard residues stand in square brackets, D forms with d. Residues, ends and D or L forms follow the SMILES beside them. *: point of attachment. 5FAM = O=C1OC2(c3ccc(O)cc3Oc3cc(O)ccc32)c2ccc(C(=O)*)cc21

`CC[C@H](C)[C@@H]1NC(=O)[C@H](CCCNC(=N)N)NC(=O)[C@H](CCCNC(=N)N)NC(=O)CNC(=O)[C@H](CCCCN)NC(=O)[C@H](CCCNC(=N)N)NC(=O)[C@H]([C@@H](C)O)NC(=O)[C@H](CCCNC(=N)N)NC(=O)[C@H](C(C)C)NC(=O)[C@H](CCCNC(=N)N)NC(=O)[C@@H]2CCCN2C(=O)[C@H]2CCCN2C(=O)[C@H]([C@@H](C)CC)NC(=O)[C@H](CCCNC(=N)N)NC1=O` [Peptide L22] (cyclo(RVRTRKGRRIRI[dP]P)): in data set [1] (peptides 12.5 to 100 μM added 24 h post-infection, % GFP-expressing cells by flow cytometry, triplicate), the “reduction of infection compared to no peptide controls” value is given as greater than 50%. For the same molecule, the “inhibition of viral replication and spread (in words)” value in [1] (peptides 12.5 to 100 μM, GFP by flow cytometry) was “blocked replication and spread”. Further, the figures for the “inhibition of HIV-1 reactivation from latency (in words)” value in [2] and in data set [2] (listed as cyclic L22) were “inhibit at similar levels” and “blocked reactivation”, respectively.

As for `CC[C@H](C)[C@@H]1NC(=O)[C@H](CCCNC(=N)N)NC(=O)[C@H](CCCNC(=N)N)NC(=O)CNC(=O)[C@H](CCCCNC(=O)c2ccc3c(c2)C(=O)OC32c3ccc(O)cc3Oc3cc(O)ccc32)NC(=O)[C@H](CCCNC(=N)N)NC(=O)[C@H]([C@@H](C)O)NC(=O)[C@H](CCCNC(=N)N)NC(=O)[C@H](C(C)C)NC(=O)[C@H](CCCNC(=N)N)NC(=O)[C@@H]2CCCN2C(=O)[C@H]2CCCN2C(=O)[C@H]([C@@H](C)CC)NC(=O)[C@H](CCCNC(=N)N)NC1=O` [fluorescein-labeled L22] (cyclo(RVRTRK(5FAM)GRRIRI[dP]P)), the “uptake (in words)” value with 2D10 Jurkat cells and in the data set on CD4+ T cells was “good uptake” each time.

A word on the Kd: it is the free concentration of one partner at which half of the binding sites on the other are occupied at equilibrium, for simple one-to-one binding. On to “GGCAGAUCUGAGCCUGGGAGCUCUCUGCC [HIV-1 TAR]”, for which the Kd was less than 0.18 nM with JB181 (synthetic) [3]; greater than 250 nM with JB184 (synthetic); 0.5 nM with JB185 (synthetic); 1.2 nM in the data set on JB186 (synthetic); 1.6 nM in the data set on JB190 (synthetic); 3 nM with JB58 (synthetic). For the same molecule, the Kd in the data set with JB59 (synthetic) came out at 1 nM; in the data set on L22 (synthetic) it was 30 nM; in data set [4] it was 17 nM.

In turn, HIV-1 TAR C24 2-aminopurine showed a Kd in the data set with JB181 (synthetic) [5] of 0.028 nM.

Regarding GGCAGAUCUGAGCCUGGGAGCUCUCUGCC (structured_RNA) [HIV-1 TAR], in the data set with P-TEFb/Tat1:57/AFF4, the Kd is 9 ± 4 nM.
